Assay results as given in the RNAGym collection of RNA variant scans (doi:10.1021/acssynbio.7b00057).

B1: Pistol ribozyme (parent)
chain: GGGUCGUUGUUCCAUAAUCGCGUGGAUAUGGCACGCAAGUUUCUACCGGGCACCGUAAAUGUCCGACUGGAGCCGUUCGGGCGGCUAUAAACAGACCUCAGGCCCGAAGCGUGGCGGCACCUGCCGCCGGUGGUAAAAAAGAUCGGAAGAGCACACGUCU

Variants of: B1
Experiment: aptazyme ON/OFF ratio, guanine; higher = stronger switching; co-transcriptional cleavage with and without guanine

| Variant | aptazyme ON/OFF ratio |
| --- | --- |
| U7A U8G G9A U10C U11C C12G C13G | 1.09 |
| U8A G9A U11C C12G C13A | 1.15 |
| U7C U8G G9U U10G U11A C12A | 1.25 |
| U7C U10G C12G C13A | 1.17 |
| U7C U8G U10G U11A C12U C13G | 1.11 |
| U7A G9C U10C U11G C13A | 1.06 |
| U7G U8C G9A U10A U11A C12A C13U | 1.17 |
| U7A U8C G9U U10A U11C C12A C13G | 1.14 |
| U7G U10A U11A C12A C13G | 1.11 |
| U7A G9U U10A U11C C13G | 1.07 |
| U7G G9C U10G U11C C12U C13A | 1.29 |
| U7C G9C U10G U11A C12G C13G | 1.11 |
| U7C U8A G9A U11G C12G C13A | 1.12 |
| U7G U8C G9A U10A U11C C12G | 1.13 |
| U7C U8C G9C U10A U11C C12G C13U | 1.2 |
| U7G U8A G9C U10C C13G | 1.01 |
| U8C G9U U10G U11G C12U C13G | 1.08 |
| U7C U8A U10C C12A C13A | 1.17 |
| U7A U8C G9U U10A U11G C13U | 1.23 |
| U7C U8A G9U U11A C12U C13A | 1.16 |
| U7A U8G U10G U11G C12G C13G | 1.03 |
| U7C U8A G9C C13A | 1.02 |
| U7C U8A G9U U10G C13A | 1.41 |
| U7C U8A G9C U10A U11G C12G C13U | 1.1 |

| Variant | aptazyme ON/OFF ratio |
| --- | --- |
| U7G U8A G9C U10A U11C C12U C13G | 1.06 |
| U7C G9C C12A | 1.03 |
| U7C U8C G9A U10G U11G C13A | 1.18 |
| G9A U11A | 2.53 |
| U7A G9U U10C U11A C12G C13A | 1.13 |
| U7A U10G U11G | 1.27 |
| U7C U8A U10C U11A | 1.16 |
| U8A G9U U10G U11C C13A | 1.03 |
| U7A G9A U10G U11A C12A C13U | 1.21 |
| U7G U8A G9U U11A C12G | 1.14 |
| U8A G9A U10G U11A C12U C13U | 0.98 |
| U7G U8G G9C U10A U11A C12U C13U | 1.02 |
| U7G U8G U10A U11A C12A C13G | 1.22 |
| U7G G9A U10C U11A C12U | 1.18 |
| U7A U8G G9A U10G U11G C12G C13U | 1.53 |
| U7G U8C G9A U10A U11A C13U | 1.21 |
| U7C U8C G9U C12A C13U | 1.22 |
| G9C U10A U11G C12U | 1.37 |
| U7A U8C G9A U10C U11C C12A | 1.18 |
| U8C G9C U10C U11A C13A | 1.01 |
| U7A U8C C13A | 1.26 |
| U7C U8A U11G C12A C13A | 1.11 |
| U8C U11C C12A C13G | 1.4 |
| U7C U10C U11A C12U | 1.42 |

| Variant | aptazyme ON/OFF ratio |
| --- | --- |
| U7A U8G G9C U11G C12G | 1.66 |
| U8A G9C U10G U11C C13G | 1.06 |
| U7A U8A G9A U10G U11A | 1.02 |
| U7A U8A G9A U11A C12A C13U | 1.07 |
| U7A U8G G9U U10G U11G C12A C13A | 1.12 |
| U8C G9A U11G C12G C13U | 1.11 |
| U7A U8C U10C C13A | 1.08 |
| U7C U8G G9C U10G U11A C13G | 1.19 |
| U7G G9U U10G U11C C12G C13G | 1.07 |
| U7A U8A U10G U11G C12A C13A | 1.21 |
| U8C G9C U10A U11C C12A C13U | 1.22 |
| U7C U8G U11A C13A | 1.07 |
| U7G U10C U11C C12A C13U | 1.11 |
| U7C U8C G9U U10A C12A | 1.22 |
| U8A U10G U11A C13U | 1.13 |
| U7A G9U U10G C12G C13U | 1.25 |
| U7A U8G G9C U11A C12A C13G | 1.37 |
| U7A U10A C12A C13G | 1.1 |
| U8A U11A C13U | 1.15 |
| U7C U8A G9C U10A C12A | 1.2 |
| U7C G9U U11C C12A C13G | 1.07 |
| U7A U8G G9U U10G C13A | 1.3 |
| U7A U8A G9U U10G U11G C12G | 1.41 |
| U8A G9C U10C C12U C13G | 1.03 |

| Variant | aptazyme ON/OFF ratio |
| --- | --- |
| G9U U11G C13A | 1.37 |
| U7C U8C G9A C12A C13A | 1.24 |
| U7A U8G G9U U10G U11G C13U | 1.24 |
| G9U U10C U11G C12A | 1.13 |
| U7A U8G U10A U11A C12U C13U | 1.28 |
| U7A U8C U10A U11A C13U | 1.12 |
| U7C G9U U11G C12A C13A | 1.19 |
| U8G G9U U10G U11G C12A C13G | 1.08 |
| U7C U8C G9A U10C C12U C13G | 1.26 |
| U7G G9U U10G U11G | 1.74 |
| G9C U11A C12U C13U | 1.34 |
| U8G G9U U10G U11A C12G C13A | 1.05 |
| U7C U8A G9U U10A C12A | 1.19 |
| U7C U8G G9C C13A | 1.06 |
| U7C C12U C13G | 1.28 |
| U7G U8C G9A U11A C13A | 1.14 |
| U7G U8C G9C U10G U11C C12U C13G | 1.32 |
| U7G U8A U10G U11G C12A C13U | 1.73 |
| U10A C12U C13A | 1.3 |
| U7C U8A G9A U10A U11G C12G C13G | 1.28 |
| U7C U8C G9C U10G U11C C12A C13G | 1.17 |
| U8A G9A U10C U11C C12G C13G | 1.13 |
| G9A U10C U11G C13U | 1.39 |
| U7A U8A G9C C12G C13A | 1.19 |

| Variant | aptazyme ON/OFF ratio |
| --- | --- |
| U7G G9U U10C U11A C13G | 1.16 |
| U7C U8G G9C U11G C12G | 1.19 |
| U7G U8A G9C U10G U11C C12A C13A | 1.07 |
| U7C U8A G9A U10G U11G C13U | 1.04 |
| U7G G9A U10C C12U C13G | 1.15 |
| U8A G9C U10G C12A C13U | 1.37 |
| U7C U8G G9A U10A U11C | 1.04 |
| U7C U8G G9C U10C U11G C12G | 1.09 |
| U7A U8C G9A U10A U11G C12A C13G | 1.23 |
| U7C U8C G9C U10C C12A C13G | 1.07 |
| U7A U8C G9U U10G U11G C12A | 1.18 |
| U7G U8A G9C U10A U11C C12G | 1.05 |
| U7C U8C G9A U10G U11C C12A C13U | 1.17 |
| U7G U8G U10G U11A C12G C13A | 1.28 |
| U8C G9A U10G | 1.57 |
| U7A U8G G9U U10G C13G | 1.32 |
| U8G G9U U11G | 1.36 |
| G9A U10A U11C C12U C13G | 1.36 |
| U7C U8A G9U U10G U11C C12G C13A | 1.22 |
| G9U U10G U11A | 1.2 |
| U7A U8G U10A U11C C12G C13A | 1.56 |
| U7C U8G G9U U10A U11A C12G C13G | 1.28 |
| U8A G9U U10C U11G C12G C13G | 1.11 |
| U7G U8C G9U U11G C12G C13G | 1.12 |

| Variant | aptazyme ON/OFF ratio |
| --- | --- |
| U7A U8A U10A U11A C12A C13U | 1.25 |
| U7G U8A U10G U11C C12U C13U | 1.1 |
| U7G G9C U10A U11C C12G C13A | 1.16 |
| G9U U10A U11G C12U C13U | 1.7 |
| U8C G9A U11A C12U C13G | 1.14 |
| U7A U8A G9C U11C C13G | 1.07 |
| U7G U8A G9C U10G U11C C12G C13U | 1.03 |
| U7G G9C U10G U11A C12G C13U | 1.28 |
| U8G G9U C12U C13A | 1.22 |
| U7C U8G G9C U10C | 3.58 |
| U7C U8C G9A U10C U11G C12A | 1.26 |
| U11G C13A | 1.05 |
| U8A G9U U10A U11C C12G C13A | 1.14 |
| U7G U10C U11A C13U | 1.16 |
| U7C U8G G9A U10C U11A C13G | 1.07 |
| U7G U8G G9C U10G C13G | 1.28 |
| U7G U8A U11C | 2.05 |
| U8A G9C U11G C12A C13U | 1.2 |
| U7G U8A G9C U11A C13U | 1.04 |
| U8C G9A U10G U11C | 1.05 |
| U8C U10G | 1.76 |
| U7A U8C G9C U10G U11A C12A | 1.26 |
| U7C U8G G9C U10C U11C C12G C13G | 1.08 |
| U7A U8C G9C U10C U11A C13A | 1.07 |

| Variant | aptazyme ON/OFF ratio |
| --- | --- |
| U7G U8A G9U U10G C13U | 1.21 |
| U7C G9C U10G U11A C12U C13U | 1.15 |
| U8G G9U U10G U11A C12U C13A | 1.05 |
| G9A U10C C12A | 1.38 |
| U7G G9C U10G U11G C12A | 1.05 |
| U7C U8G U10C U11A C12G C13G | 1.12 |
| U7G U8G G9A U10A U11C C12A C13G | 1.17 |
| U8G U10A U11C C12A C13U | 1.14 |
| G9C U10A U11C C12G C13A | 1.32 |
| U7C U8G U10A U11C C12A C13U | 1.15 |
| U7C G9A U10G U11A C12G C13G | 1.31 |
| U7C U8C U10A C12A C13A | 1.05 |
| U8C G9A U11A C12A C13G | 1.13 |
| U7C U8G U10A C12A | 1.41 |
| U8A G9U U10G U11A C12U C13U | 1.12 |
| U7A U10A U11A C12U C13U | 1.22 |
| G9U C12G | 1.75 |
| U7C G9U U11A C12U C13U | 1.2 |
| U7G U8G G9C U11C C12U C13U | 1.26 |
| U7A U8A U10C U11G C12G C13U | 1.19 |
| U7C U8A U10G U11G C12U C13U | 1.44 |
| U7A U10C U11C C12U C13U | 1.07 |
| U7G U8C G9A U10G C13G | 1.19 |
